Laboratory results: patent publication US20090099029A1, “Methods and substrates for conducting assays” (Invitrogen Corporation, priority 2005, published 2009)

B1: PLK3 (protein)
chain: SGRTYLKGRLLGKGGFARCYEATDTETGSAYAVKVIPQSRVAKPHQREKILNEIELHRDLQHRHIVRFSHHFEDADNIYIFLELCSRKSLAHIWKARHTLLEPEVRYYLRQILSGLKYLHQRGILHRDLKLGNFFITENMELKVGDFGLAARLEPPEQRKKTICGTPNYVAPEVLLRQGHGPEADVWSLGCVMYTLLCGSPPFETADLKETYRCIKQVHYTLPASLSLPARQLLAAILRASPRDRPSIDQILRHDFFTKGYTPDRLPISSCVTVPDLTPPNPA
modifications: left off: a dimerising Fc or GST
B2: PRKCE (protein)
chain: MVVFNGLLKIKICEAVSLKPTAWSLRHAVGPRPQTFLLDPYIALNVDDSRIGQTATKQKTNSPAWHDEFVTDVCNGRKIELAVFHDAPIGYDDFVANCTIQFEELLQNGSRHFEDWIDLEPEGRVYVIIDLSGSSGEAPKDNEERVFRERMRPRKRQGAVRRRVHQVNGHKFMATYLRQPTYCSHCRDFIWGVIGKQGYQCQVCTCVVHKRCHELIITKCAGLKKQETPDQVGSQRFSVNMPHKFGIHNYKVPTFCDHCGSLLWGLLRQGLQCKVCKMNVHRRCETNVAPNCGVDARGIAKVLADLGVTPDKITNSGQRRKKLIAGAESPQPASGSSPSEEDRSKSAPTSPCDQEIKELENNIRKALSFDNRGEEHRAASSPDGQLMSPGENGEVRQGQAKRLGLDEFNFIKVLGKGSFGKVMLAELKGKDEVYAVKVLKKDVILQDDDVDCTMTEKRILALARKHPYLTQLYCCFQTKDRLFFVMEYVNGGDLMFQIQRSRKFDEPRSRFYAAEVTSALMFLHQHGVIYRDLKLDNILLDAEGHCKLADFGMCKEGILNGVTTTTFCGTPDYIAPEILQELEYGPSVDWWALGVLMYEMMAGQPPFEADNEDDLFESILHDDVLYPVWLSKEAVSILKAFMTKNPHKRLGCVASQNGEDAIKQHPFFKEIDWVLLEQKKIKPPFKPRIKTKRDVNNFDQDFTREEPVLTLVDEAIVKQINQEEFKGFSYFGEDLMP
B3: PAK3 (protein)
chain: MSDGLDNEEKPPAPPLRMNSNNRDSSALNHSSKPLPMAPEEKNKKARLRSIFPGGGDKTNKKKEKERPEISLPSDFEHTIHVGFDAVTGEFTGIPEQWARLLQTSNITKLEQKKNPQAVLDVLKFYDSKETVNNQKYMSFTSGDKSAHGYIAAHPSSTKTASEPPLAPPVSEEEDEEEEEEEDENEPPPVIAPRPEHTKSIYTRSVVESIASPAVPNKEVTPPSAENANSSTLYRNTDRQRKKSKMTDEEILEKLRSIVSVGDPKKKYTRFEKIGQGASGTVYTALDIATGQEVAIKQMNLQQQPKKELIINEILVMRENKNPNIVNYLDSYLVGDELWVVMEYLAGGSLTDVVTETCMDEGQIAAVCRECLQALDFLHSNQVIHRDIKSDNILLGMDGSVKLTDFGFCAQITPEQSKRSTMVGTPYWMAPEVVTRKAYGPKVDIWSLGIMAIEMVEGEPPYLNENPLRALYLIATNGTPELQNPERLSAVFRDFLNRCLEMDVDRRGSAKELLQHPFLKLAKPLSSLTPLIIAAKEAIKNSSR
modifications: left off: small tags and cut ends
B4: PRKCZ (protein)
chain: MPSRTGPKMEGSGGRVRLKAHYGGDIFITSVDAATTFEELCEEVRDMCRLHQQHPLTLKWVDSEGDPCTVSSQMELEEAFRLARQCRDEGLIIHVFPSTPEQPGLPCPGEDKSIYRRGARRWRKLYRANGHLFQAKRFNRRAYCGQCSERIWGLARQGYRCINCKLLVHKRCHGLVPLTCRKHMDSVMPSQEPPVDDKNEDADLPSEETDGIAYISSSRKHDSIKDDSEDLKPVIDGMDGIKISQGLGLQDFDLIRVIGRGSYAKVLLVRLKKNDQIYAMKVVKKELVHDDEDIDWVQTEKHVFEQASSNPFLVGLHSCFQTTSRLFLVIEYVNGGDLMFHMQRQRKLPEEHARFYAAEICIALNFLHERGIIYRDLKLDNVLLDADGHIKLTDYGMCKEGLGPGDTTSTFCGTPNYIAPEILRGEEYGFSVDWWALGVLMFEMMAGRSPFDIITDNPDMNTEDYLFQVILEKPIRIPRFLSVKASHVLKGFLNKDPKERLGCRPQTGFSDIKSHAFFRSIDWDLLEKKQALPPFQPQITDDYGLDNFDTQFTSEPVQLTPDDEDAIKRIDQSEFEGFEYINPLLLSTEESV
B5: PHKG2 (protein)
chain: MTLDVGPEDELPDWAAAKEFYQKYDPKDVIGRGVSSVVRRCVHRATGHEFAVKIMEVTAERLSPEQLEEVREATRRETHILRQVAGHPHIITLIDSYESSSFMFLVFDLMRKGELFDYLTEKVALSEKETRSIMRSLLEAVSFLHANNIVHRDLKPENILLDDNMQIRLSDFGFSCHLEPGEKLRELCGTPGYLAPEILKCSMDETHPGYGKEVDLWACGVILFTLLAGSPPFWHRRQILMLRMIMEGQYQFSSPEWDDRSSTVKDLISRLLQVDPEARLTAEQALQHPFFERCEGSQPWNLTPRQRFRVAVWTVLAAGRVALSTHRVRPLTKNALLRDPYALRSVRHLIDNCAFRLYGHWVKKGEQQNRAALFQHRPPGPFPIMGPEEEGDSAAITEDEAVLVLG
modifications: left off: small tags and cut ends
B6: PAK6 (protein)
chain: MFRKKKKKRPEISAPQNFQHRVHTSFDPKEGKFVGLPPQWQNILDTLRRPKPVVDPSRITRVQLQPMKTVVRGSAMPVDGYISGLLNDIQKLSVISSNTLRGRSPTSRRRAQSLGLLGDEHWATDPDMYLQSPQSERTDPHGLYLSCNGGTPAGHKQMPWPEPQSPRVLPNGLAAKAQSLGPAEFQGASQRCLQLGACLQSSPPGASPPTGTNRHGMKAAKHGSEEARPQSCLVGSATGRPGGEGSPSPKTRESSLKRRLFRSMFLSTAATAPPSSSKPGPPPQSKPNSSFRPPQKDNPPSLVAKAQSLPSDQPVGTFSPLTTSDTSSPQKSLRTAPATGQLPGRSSPAGSPRTWHAQISTSNLYLPQDPTVAKGALAGEDTGVVTHEQFKAALRMVVDQGDPRLLLDSYVKIGEGSTGIVCLAREKHSGRQVAVKMMDLRKQQRRELLFNEVVIMRDYQHFNVVEMYKSYLVGEELWVLMEFLQGGALTDIVSQVRLNEEQIATVCEAVLQALAYLHAQGVIHRDIKSDSILLTLDGRVKLSDFGFCAQISKDVPKRKSLVGTPYWMAPEVISRSLYATEVDIWSLGIMVIEMVDGEPPYFSDSPVQAMKRLRDSPPPKLKNSHKVSPVLRDFLERMLVRDPQERATAQELLDHPFLLQTGLPECLVPLIQLYRKQTSTC
modifications: left off: small tags and cut ends
B7: EPHB2 (protein)
chain: CNRRGFERADSEYTDKLQHYTSGHMTPGMKIYIDPFTYEDPNEAVREFAKEIDISCVKIEQVIGAGEFGEVCSGHLKLPGKREIFVAIKTLKSGYTEKQRRDFLSEASIMGQFDHPNVIHLEGVVTKSTPVMIITEFMENGSLDSFLRQNDGQFTVIQLVGMLRGIAAGMKYLADMNYVHRDLAARNILVNSNLVCKVSDFGLSRFLEDDTSDPTYTSALGGKIPIRWTAPEAIQYRKFTSASDVWSYGIVMWEVMSYGERPYWDMTNQDVINAIEQDYRLPPPMDCPSALHQLMLDCWQKDRNHRPKFGQIVNTLDKMIRNPNSLKAMAPLSSGINLPLLDRTIPDYTSFNTVDEWLEAIKMGQYKESFANAGFTSFDVVSQMMMEDILRVGVTLAGHQKKILNSIQVMRAQMNQIQSVEV
modifications: left off: a dimerising Fc or GST
B8: EPHB1 (protein)
chain: SRKRAYSKEAVYSDKLQHYSTGRGSPGMKIYIDPFTYEDPNEAVREFAKEIDVSFVKIEEVIGAGEFGEVYKGRLKLPGKREIYVAIKTLKAGYSEKQRRDFLSEASIMGQFDHPNIIRLEGVVTKSRPVMIITEFMENGALDSFLRQNDGQFTVIQLVGMLRGIAAGMKYLAEMNYVHRDLAARNILVNSNLVCKVSDFGLSRYLQDDTSDPTYTSSLGGKIPVRWTAPEAIAYRKFTSASDVWSYGIVMWEVMSFGERPYWDMSNQDVINAIEQDYRLPPPMDCPAALHQLMLDCWQKDRNSRPRFAEIVNTLDKMIRNPASLKTVATITAVPSQPLLDRSIPDFTAFTTVDDWLSAIKMVQYRDSFLTAGFTSLQLVTQMTSEDLLRIGITLAGHQKKILNSIHSMRVQISQSPTAMA
modifications: left off: a dimerising Fc or GST
B9: EPHA8 (protein)
chain: KKRHCGYSKAFQDSDEEKMHYQNGQAPPPVFLPLHHPPGKLPEPQFYAEPHTYEEPGRAGRSFTREIEASRIHIEKIIGSGDSGEVCYGRLRVPGQRDVPVAIKALKAGYTERQRRDFLSEASIMGQFDHPNIIRLEGVVTRGRLAMIVTEYMENGSLDTFLRTHDGQFTIMQLVGMLRGVGAGMRYLSDLGYVHRDLAARNVLVDSNLVCKVSDFGLSRVLEDDPDAAYTTTGGKIPIRWTAPEAIAFRTFSSASDVWSFGVVMWEVLAYGERPYWNMTNRDVISSVEEGYRLPAPMGCPHALHQLMLDCWHKDRAQRPRFSQIVSVLDALIRSPESLRATATVSRCPPPAFVRSCFDLRGGSGGGGGLTVGDWLDSIRMGRYRDHFAAGGYSSLGMVLRMNAQDVRALGITLMGHQKKILGSIQTMRAQLTSTQGPRRHL
modifications: left off: a dimerising Fc or GST
B10: PRKD1(PKD) (protein)
chain: MSAPPVLRPPSPLLPVAAAAAAAAAALVPGSGPGPAPFLAPVAAPVGGISFHLQIGLSREPVLLLQDSSGDYSLAHVREMACSIVDQKFPECGFYGMYDKILLFRHDPTSENILQLVKAASDIQEGDLIEVVLSASATFEDFQIRPHALFVHSYRAPAFCDHCGEMLWGLVRQGLKCEGCGLNYHKRCAFKIPNNCSGVRRRRLSNVSLTGVSTIRTSSAELSTSAPDEPLLQKSPSESFIGREKRSNSQSYIGRPIHLDKILMSKVKVPHTFVIHSYTRPTVCQYCKKLLKGLFRQGLQCKDCRFNCHKRCAPKVPNNCLGEVTINGDLLSPGAESDVVMEEGSDDNDSERNSGLMDDMEEAMVQDAEMAMAECQNDSGEMQDPDPDHEDANRTISPSTSNNIPLMRVVQSVKHTKRKSSTVMKEGWMVHYTSKDTLRKRHYWRLDSKCITLFQNDTGSRYYKEIPLSEILSLEPVKTSALIPNGANPHCFEITTANVVYYVGENVVNPSSPSPNNSVLTSGVGADVARMWEIAIQHALMPVIPKGSSVGTGTNLHRDISVSISVSNCQIQENVDISTVYQIFPDEVLGSGQFGIVYGGKHRKTGRDVAIKIIDKLRFPTKQESQLRNEVAILQNLHHPGVVNLECMFETPERVFVVMEKLHGDMLEMILSSEKGRLPEHITKFLITQILVALRHLHFKNIVHCDLKPENVLLASADPFPQVKLCDFGFARIIGEKSFRRSVVGTPAYLAPEVLRNKGYNRSLDMWSVGVIIYVSLSGTFPFNEDEDIHDQIQNAAFMYPPNPWKEISHEAIDLINNLLQVKMRKRYSVDKTLSHPWLQDYQTWLDLRELECKIGERYITHESDDLRWEKYAGEQGLQYPTHLINPSASHSDTPETEETEMKALGERVSIL
modifications: left off: a dimerising Fc or GST

Test system: kinases of Table 6 on Myelin Basic Protein (MBP)
Assay: Kinase assay using MBP substrate, ProQ Diamond stain (Table 6)
Type: biochemical
Conditions: kinase printed on MBP-coated slide; 20 uM ATP, 30° C.; ProQ Diamond Microarray Stain; graded Strong/Weak/Negative
Outline: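 Bovine dephosphorylated MBP coated on aldehyde- or epoxy-glass slides, kinases printed on top; reaction buffer pH 7.5 with 4 mM MgCl2, 20 uM ATP, 5% DMSO, ± inhibitor, at 30° C. Phosphorylation detected by ProQ Diamond stain, 30 min in dark.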

Molecule | MBP Kinase Activity
B1 | Negative
B2 | Strong
B3 | Weak
B4 | Strong
B5 | Negative
B6 | Negative
B7 | Strong
B8 | Strong
B9 | Weak
B10 | Weak
